Test results reported in the supplement of paper PMC10724198.
± gives the standard deviation of the averaged measurements.

Columns and labels:
[1] = test system: Saccharomyces cerevisiae; assay: protein stability index of tFT-peptide fusion (C-terminal peptide) (PSI (0-1 scale)); higher = more stable (slower turnover)
Protocol: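 MPS profiling in S. cerevisiae of the tFT-X12 degron library: putative degron peptides plus stable controls, 12 aa, fused to the C-terminus of a sfGFP-mCherry timer. Cells are FACS-sorted into 8 mCherry/sfGFP bins and deep-sequenced. PSI runs from 0 (unstable) to 1 (stable). Backgrounds are wild type, das1Δ and doa10Δ at 30 °C, and wild type, das1Δ, cdc34-1 and cdc53-1 at 37 °C; 2-3 technical replicates each.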

[2] = test system: Saccharomyces cerevisiae; assay: as above; conditions: genetic background: wild type; temperature: 30 C
[3] = genetic background: cdc34-1, temperature: 37 C
[4] = genetic background: cdc53-1, temperature: 37 C
[5] = genetic background: das1 deletion, temperature: 30 C
[6] = genetic background: das1 deletion, temperature: 37 C
[7] = genetic background: doa10 deletion, temperature: 30 C
[8] = genetic background: wild type, temperature: 30 C
[9] = genetic background: wild type, temperature: 37 C
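Also: PSI is a weighted mean of sequencing reads over stability bins, variants kept only with over 10 reads, mCherry proximal and sfGFP distal, peptide attached via GGGS linker.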

Row | Sequence | protein stability index [1, 3] | protein stability index [1, 4] | protein stability index [1, 5] | protein stability index [1, 6] | protein stability index [1, 7] | protein stability index [1, 8] | protein stability index [1, 9] | protein stability index [2]
1 | WNSQGVFILAKC | 0.54 ± 0.035 | 0.588 ± 0.032 | 0.375 ± 0.026 | 0.5687 ± 0.0026 | 0.334 ± 0.021 | 0.372 ± 0.021 | 0.561 ± 0.00046 | 0.4783 ± 0.0023
2 | VVRLRVWRLLKV | 0.267 ± 0.022 | 0.33 ± 0.048 | 0.253 ± 0.03 | 0.42491 ± 4.8e-05 | 0.101 ± 0.034 | 0.161 ± 0.026 | 0.185 ± 0.016 | 0.225 ± 0.023
3 | CVYGILLLVDVR | 0.0231 ± 0.00051 | 0.0547 ± 0.039 | 0.106 ± 0.032 | 0.128 ± 0.005 | 0.0714 ± 0.034 | 0.0971 ± 0.018 | 0.143 ± 0.066 | 0.189 ± 0.0074
4 | SVGCCLLCFFVL | 0.523 ± 0.012 | 0.563 ± 0.012 | 0.41 ± 0.03 | 0.5645 ± 0.0043 | 0.339 ± 0.029 | 0.351 ± 0.029 | 0.5031 ± 0.0027 | 0.425 ± 0.028
5 | LEPFTGYTVIVM | 0.165 ± 0.045 | 0.185 ± 0.015 | 0.232 ± 0.045 | 0.331 ± 0.021 | 0.189 ± 0.0054 | 0.236 ± 0.034 | 0.261 ± 0.032 | 0.334 ± 0.048
6 | FFIMFFDFWGYF | 0.378 ± 0.01 | 0.462 ± 0.021 | 0.335 ± 0.023 | 0.624 ± 0.075 | 0.319 ± 0.0034 | 0.373 ± 0.047 | 0.57 ± 0.028 | 0.447 ± 0.079
7 | KALFPGLLLCAF | 0.168 ± 0.0027 | 0.188 ± 0.0038 | 0.239 ± 0.02 | 0.292 ± 0.012 | 0.204 ± 0.0091 | 0.232 ± 0.022 | 0.268 ± 0.017 | 0.307 ± 0.014
8 | WFVCSGVYGSVM | 0.676 ± 0.0086 | 0.749 ± 0.02 | 0.682 ± 0.094 | 0.758 ± 0.035 | 0.6528 ± 0.0019 | 0.638 ± 0.026 | 0.721 ± 0.0092 | 0.692 ± 0.013
9 | SFFCTRVLWVFQ | 0.534 ± 0.017 | 0.612 ± 0.025 | 0.539 ± 0.022 | 0.6285 ± 0.0029 | 0.0925 ± 0.004 | 0.0846 ± 0.027 | 0.149 ± 0.029 | 0.157 ± 0.023
10 | FFCFFWLFHWFG | 0.512 ± 0.012 | 0.566 ± 0.022 | 0.485 ± 0.016 | 0.5875 ± 0.0025 | 0.4643 ± 0.0022 | 0.451 ± 0.015 | 0.5356 ± 0.0044 | 0.443 ± 0.028
11 | FSPLVCLLFFLF | 0.492 ± 0.031 | 0.565 ± 0.018 | 0.424 ± 0.017 | 0.5725 ± 0.00062 | 0.32 ± 0.0052 | 0.333 ± 0.019 | 0.4778 ± 0.0016 | 0.3938 ± 0.00098
12 | QLGGKVGNCHVV | 0.683 ± 0.046 | 0.7507 ± 0.0047 | 0.6644 ± 0.0051 | 0.732 ± 0.025 | 0.668 ± 0.05 | 0.652 ± 0.009 | 0.715 ± 0.034 | 0.75 ± 0.021
13 | FFFFFIHFLCYF | 0.239 ± 0.019 | 0.208 ± 0.0039 | 0.249 ± 0.034 | 0.383 ± 0.021 | 0.288 ± 0.0065 | 0.239 ± 0.047 | 0.357 ± 0.0053 | 0.31 ± 0.035
14 | LNALSHCRAICS | 0.632 ± 0.027 | 0.687 ± 0.0091 | 0.604 ± 0.023 | 0.692 ± 0.015 | 0.238 ± 0.0073 | 0.268 ± 0.028 | 0.462 ± 0.0055 | 0.379 ± 0.039
15 | YYLVKCVYLRTT | 0.413 ± 0.013 | 0.4509 ± 0.0038 | 0.371 ± 0.029 | 0.504 ± 0.0098 | 0.155 ± 0.02 | 0.175 ± 0.0092 | 0.3201 ± 0.00022 | 0.254 ± 0.032
16 | VCFLCIWLYSED | 0.268 ± 0.028 | 0.358 ± 0.013 | 0.227 ± 0.041 | 0.4305 ± 0.004 | 0.218 ± 0.017 | 0.221 ± 0.033 | 0.418 ± 0.056 | 0.344 ± 0.026
17 | SLPIFSGVASVR | 0.677 ± 0.014 | 0.737 ± 0.033 | 0.64 ± 0.028 | 0.778 ± 0.0013 | 0.642 ± 0.043 | 0.649 ± 0.035 | 0.728 ± 0.011 | 0.694 ± 0.022
18 | LVCLFFLSSLFF | 0.547 ± 0.05 | 0.606 ± 0.0081 | 0.495 ± 0.046 | 0.602 ± 0.022 | 0.46 ± 0.016 | 0.464 ± 0.02 | 0.58 ± 0.017 | 0.4609 ± 0.0043
19 | VVRSIVVYTCVF | 0.3284 ± 0.0017 | 0.365 ± 0.041 | 0.262 ± 0.026 | 0.4241 ± 0.0025 | 0.219 ± 0.0039 | 0.253 ± 0.02 | 0.405 ± 0.0074 | 0.352 ± 0.021
